For orientation: stoichiometry N means the number of molecules, sites or subunits per partner or assembly.

Test [1] deals with AMS0232 E2E1-I53-50A (hepatitis C virus, isolate AMS0232 (genotype 1a)). The test can be described thus: SEC; Strep-Tactin-purified E2E1-I53-50A alone on Superdex 200 Increase 10/300 GL or Superose 6 Increase 10/300 GL; TBS/5% glycerol; elutes as a trimer. (In general: SEC sorts molecules by how far they enter the pores of the column.)
The target is the same in test [2]. Kind of test: non-reducing SDS-PAGE; purified protein on a non-reducing gel; one band larger than 250 kDa, disulfide-bonded trimer.
Test [3] concerns the target UKNP6.1.2 E2E1-I53-50A (hepatitis C virus, strain UKNP6.1.2). The description is as above.
Test [4] has as its target AMS2b E2E1-I53-50A (hepatitis C virus, strain AMS2b). The test is described as above.
In test [5] the target is H77 E2E1-I53-50A (hepatitis C virus, strain H77). The description is as above.
The target in test [6] is UKNP4.1.1 E2E1-I53-50A (hepatitis C virus, strain UKNP4.1.1). The description is as above.
Test [7] addresses UKNP2.2.1 E2E1-I53-50A (hepatitis C virus, strain UKNP2.2.1 / UKNP2.1.1). The test is described as above.
Test [8] deals with UKNP5.2.1 E2E1-I53-50A (hepatitis C virus, strain UKNP5.2.1). The test is described as above.

In the case of AMS0232 E2E1-I53-50A (complex), the stoichiometry N in test [1] and in test [2] was 3 each time.

Take UKNP6.1.2 E2E1-I53-50A (complex): in test [3], the stoichiometry N was 3. Substance AMS2b E2E1-I53-50A (complex) yielded a stoichiometry N in test [4] of 3. For the substance H77 E2E1-I53-50A (complex), in test [5], the stoichiometry N is 3. In test [6], UKNP4.1.1 E2E1-I53-50A (complex) showed a stoichiometry N of 3. With UKNP2.2.1 E2E1-I53-50A, the stoichiometry N in test [7] worked out at 3. Consider UKNP5.2.1 E2E1-I53-50A (complex), for which the stoichiometry N in test [8] turned out to be 3.

Source of the values: PMC9700739.
